From patent publication US20190032036 come the findings set out here.

Common to all, as to experiment: cell_activity
The target of data set [1] is SpCas9 K810A K810A (Streptococcus pyogenes) (UniProt Q99ZW2).
Data set [2] addresses SpCas9 R1060A R1060A (Streptococcus pyogenes) (UniProt Q99ZW2).
Data set [3] addresses SpCas9 R780A R780A (Streptococcus pyogenes) (UniProt Q99ZW2).
In data set [4] the test system is SpCas9 H982A H982A (Streptococcus pyogenes).
In data set [5] the test system is SpCas9 R976A R976A (Streptococcus pyogenes).
Data set [6] deals with SpCas9 K1003A K1003A (Streptococcus pyogenes) (UniProt Q99ZW2).
Data set [7] has as its target SpCas9 K848A K848A (Streptococcus pyogenes) (UniProt Q99ZW2).
In data set [8] the target is SpCas9 K855A (Streptococcus pyogenes) (UniProt Q99ZW2).

In the case of EMX1(1) sgRNA guide ; EMX1 OT46, the activity in data set [1] (WT 8.8) came to 0.1 % indel; in data set [2] (WT 8.8), 1.8 % indel; in data set [3] (WT 8.8), 0.1 % indel; in data set [4] (WT 8.8), 0.4 % indel; in data set [5] (WT 8.8), 0.1 % indel; in data set [6] (WT 8.8) it was 2.8 % indel. The activity was found to be 0.1 % indel in data set [7] (WT 8.8) and 0.3 % indel in data set [8] (WT 8.8).

As to EMX1(1) sgRNA guide ; EMX1 OT25, the activity is 0.1 % indel in data set [1] (WT 10.5); 1.3 % indel in data set [2] (WT 10.5); 0 % indel in data set [3] (WT 10.5); 0.5 % indel in data set [4] (WT 10.5); 0.1 % indel in data set [5] (WT 10.5); 4.1 % indel in data set [6] (WT 10.5). Further, the activity stood at 0.1 % indel in data set [7] (WT 10.5) and 0.2 % indel in data set [8] (WT 10.5, on-target 25.1 in same table).
